According to patent US20160009806A1 (Seagen, published 2016):

B1: humanized 15H3 antibody HNLC (antibody, V domains shown)
VH: QVQLVQSGAEVKKPGASVKVSCKASGYSFSGYFMNWVRQAPGQGLEWMGLINPYNGDSFYNQKFKGRVTMTRQTSTSTVYMELSSLRSEDTAVYYCARGLRRDFDYWGQGTLVTVSS
VL: DVVMTQSPLSLPVTLGQPASISCKSSQSLLDSDGKTYLNWLFQRPGQSPRRLIYLVSELDSGVPDRFSGSGSGTDFTLKISRVEAEDVGVYYCWQGTHFPRTFGGGTKLEIKR
B2: humanized 15H3 antibody HMLC (antibody, V domains shown)
VH: QVQLVQSGAEVKKPGASVKVSCKASGYSFSGYFMNWVRQAPGQGLEWMGLINPYNGDSFYNQKFKGRVTMTRQKSSSTAYMELSSLRSEDTAVYYCARGLRRDFDYWGQGTLVTVSS
VL: DVVMTQSPLSLPVTLGQPASISCKSSQSLLDSDGKTYLNWLFQRPGQSPRRLIYLVSELDSGVPDRFSGSGSGTDFTLKISRVEAEDVGVYYCWQGTHFPRTFGGGTKLEIKR
B3: humanized 15H3 antibody HULC (antibody, V domains shown)
VH: QVQLVQSGAEVKKPGASVKVSCKASGYSFSGYFMNWVRQAPGQGLEWMGLINPYNGDSFYNQKFKGRVTMTRQKSSSTAYMELSSLRSEDTAVYYCVRGLRRDFDYWGQGTLVTVSS
VL: DVVMTQSPLSLPVTLGQPASISCKSSQSLLDSDGKTYLNWLFQRPGQSPRRLIYLVSELDSGVPDRFSGSGSGTDFTLKISRVEAEDVGVYYCWQGTHFPRTFGGGTKLEIKR
B4: humanized 15H3 antibody HRLC (antibody, V domains shown)
VH: QVQLVQSGAEVKKPGASVKVSCKASGYSFSGYFMNWVRQAPGQGLEWMGLINPYNGDSFYNQKFKGRVTMTRDTSSSTAYMELSSLRSEDTAVYYCARGLRRDFDYWGQGTLVTVSS
VL: DVVMTQSPLSLPVTLGQPASISCKSSQSLLDSDGKTYLNWLFQRPGQSPRRLIYLVSELDSGVPDRFSGSGSGTDFTLKISRVEAEDVGVYYCWQGTHFPRTFGGGTKLEIKR
B5: humanized 15H3 antibody HLLC (antibody, V domains shown)
VH: QVQLVQSGAEVKKPGASVKVSCKASGYSFSGYFMNWVRQAPGQGLEWMGLINPYNGDSFYNQKFKGRVTMTRDKSSSTAYMELSSLRSEDTAVYYCARGLRRDFDYWGQGTLVTVSS
VL: DVVMTQSPLSLPVTLGQPASISCKSSQSLLDSDGKTYLNWLFQRPGQSPRRLIYLVSELDSGVPDRFSGSGSGTDFTLKISRVEAEDVGVYYCWQGTHFPRTFGGGTKLEIKR
notes: also called h15H3-2
B6: humanized 15H3 antibody HRLG (antibody, V domains shown)
VH: QVQLVQSGAEVKKPGASVKVSCKASGYSFSGYFMNWVRQAPGQGLEWMGLINPYNGDSFYNQKFKGRVTMTRDTSSSTAYMELSSLRSEDTAVYYCARGLRRDFDYWGQGTLVTVSS
VL: DVVLTQSPLSLPVTLGQPASISCKSSQSLLDSDGKTYLNWLFQRPGQSPRRLIYLVSELDSGVPDRFSGSGSGTDFTLKISRVEAEDVGVYYCWQGTHFPRTFGGGTKLEIKR
B7: humanized 15H3 antibody HNLG (antibody, V domains shown)
VH: QVQLVQSGAEVKKPGASVKVSCKASGYSFSGYFMNWVRQAPGQGLEWMGLINPYNGDSFYNQKFKGRVTMTRQTSTSTVYMELSSLRSEDTAVYYCARGLRRDFDYWGQGTLVTVSS
VL: DVVLTQSPLSLPVTLGQPASISCKSSQSLLDSDGKTYLNWLFQRPGQSPRRLIYLVSELDSGVPDRFSGSGSGTDFTLKISRVEAEDVGVYYCWQGTHFPRTFGGGTKLEIKR
B8: humanized 15H3 antibody HMLG (antibody, V domains shown)
VH: QVQLVQSGAEVKKPGASVKVSCKASGYSFSGYFMNWVRQAPGQGLEWMGLINPYNGDSFYNQKFKGRVTMTRQKSSSTAYMELSSLRSEDTAVYYCARGLRRDFDYWGQGTLVTVSS
VL: DVVLTQSPLSLPVTLGQPASISCKSSQSLLDSDGKTYLNWLFQRPGQSPRRLIYLVSELDSGVPDRFSGSGSGTDFTLKISRVEAEDVGVYYCWQGTHFPRTFGGGTKLEIKR
B9: humanized 15H3 antibody HSLC (antibody, V domains shown)
VH: QVQLVQSGAEVKKPGASVKVSCKASGYSFSGYFMNWVRQAPGQGLEWMGLINPYNGDSFYNQKFKGRVTMTRQTSSSTAYMELSSLRSEDTAVYYCARGLRRDFDYWGQGTLVTVSS
VL: DVVMTQSPLSLPVTLGQPASISCKSSQSLLDSDGKTYLNWLFQRPGQSPRRLIYLVSELDSGVPDRFSGSGSGTDFTLKISRVEAEDVGVYYCWQGTHFPRTFGGGTKLEIKR
B10: humanized 15H3 antibody HLLG (antibody, V domains shown)
VH: QVQLVQSGAEVKKPGASVKVSCKASGYSFSGYFMNWVRQAPGQGLEWMGLINPYNGDSFYNQKFKGRVTMTRDKSSSTAYMELSSLRSEDTAVYYCARGLRRDFDYWGQGTLVTVSS
VL: DVVLTQSPLSLPVTLGQPASISCKSSQSLLDSDGKTYLNWLFQRPGQSPRRLIYLVSELDSGVPDRFSGSGSGTDFTLKISRVEAEDVGVYYCWQGTHFPRTFGGGTKLEIKR
B11: murine 15H3 antibody conjugated with vcMMAE (antibody, V domains shown)
VH: EVQLQQSGPELVKPGASVKISCKASGYSFSGYFMNWVKQSHGQSLEWIGLINPYNGDSFYNQKFKGKATLTVQKSSSTAHMELQSLTSEDSAVFYCVRGLRRDFDYWGQGTPLTVSS
VL: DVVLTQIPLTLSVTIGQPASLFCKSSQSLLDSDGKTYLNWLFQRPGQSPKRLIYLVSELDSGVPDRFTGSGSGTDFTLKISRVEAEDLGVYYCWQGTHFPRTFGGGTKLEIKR
modifications: vcMMAE drug-linker conjugated to the antibody (site and loading not stated for the murine ADC)
B12: murine 15H3 antibody conjugated with mcMMAF (antibody, V domains shown)
VH: EVQLQQSGPELVKPGASVKISCKASGYSFSGYFMNWVKQSHGQSLEWIGLINPYNGDSFYNQKFKGKATLTVQKSSSTAHMELQSLTSEDSAVFYCVRGLRRDFDYWGQGTPLTVSS
VL: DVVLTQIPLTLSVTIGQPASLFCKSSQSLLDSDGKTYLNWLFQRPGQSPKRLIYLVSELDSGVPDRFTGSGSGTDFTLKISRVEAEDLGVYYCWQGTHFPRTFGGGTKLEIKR
modifications: mcMMAF drug-linker conjugated to the antibody (site and loading not stated for the murine ADC)
B13: humanized 15H3 antibody HBLA (antibody, V domains shown)
VH: QVQLVQSGAEVKKPGASVKVSCKASGYSFSGYFMNWVRQAPGQGLEWMGLINPYNGDSFYNQKFKGRVTMTRDTSTSTVYMELSSLRSEDTAVYYCARGLRRDFDYWGQGTLVTVSS
VL: DVVMTQSPLSLPVTLGQPASISCKSSQSLLDSDGKTYLNWFQQRPGQSPRRLIYLVSELDSGVPDRFSGSGSGTDFTLKISRVEAEDVGVYYCWQGTHFPRTFGGGTKLEIKR
notes: HB heavy chain with LA light chain of the first humanization round
B14: humanized 15H3 antibody HBLD (antibody, V domains shown)
VH: QVQLVQSGAEVKKPGASVKVSCKASGYSFSGYFMNWVRQAPGQGLEWMGLINPYNGDSFYNQKFKGRVTMTRDTSTSTVYMELSSLRSEDTAVYYCARGLRRDFDYWGQGTLVTVSS
VL: DVVMTQSPLSLPVTLGQPASISCKSSQSLLDSDGKTYLNWFQQRPGQSPKRLIYLVSELDSGVPDRFSGSGSGTDFTLKISRVEAEDVGVYYCWQGTHFPRTFGGGTKLEIKR
notes: HB heavy chain with LD light chain of the first humanization round
B15: humanized 15H3 antibody HBLB (antibody, V domains shown)
VH: QVQLVQSGAEVKKPGASVKVSCKASGYSFSGYFMNWVRQAPGQGLEWMGLINPYNGDSFYNQKFKGRVTMTRDTSTSTVYMELSSLRSEDTAVYYCARGLRRDFDYWGQGTLVTVSS
VL: DVVMTQSPLSLPVTLGQPASLFCKSSQSLLDSDGKTYLNWFQQRPGQSPRRLIYLVSELDSGVPDRFSGSGSGTDFTLKISRVEAEDVGVYYCWQGTHFPRTFGGGTKLEIKR
notes: HB heavy chain with LB light chain of the first humanization round
B16: humanized 15H3 antibody HBLF (antibody, V domains shown)
VH: QVQLVQSGAEVKKPGASVKVSCKASGYSFSGYFMNWVRQAPGQGLEWMGLINPYNGDSFYNQKFKGRVTMTRDTSTSTVYMELSSLRSEDTAVYYCARGLRRDFDYWGQGTLVTVSS
VL: DVVMTQSPLSLPVTLGQPASLFCKSSQSLLDSDGKTYLNWLFQRPGQSPKRLIYLVSELDSGVPDRFTGSGSGTDFTLKISRVEAEDVGVYYCWQGTHFPRTFGGGTKLEIKR
notes: HB heavy chain with LF light chain of the first humanization round
B17: humanized 15H3 antibody HBLE (antibody, V domains shown)
VH: QVQLVQSGAEVKKPGASVKVSCKASGYSFSGYFMNWVRQAPGQGLEWMGLINPYNGDSFYNQKFKGRVTMTRDTSTSTVYMELSSLRSEDTAVYYCARGLRRDFDYWGQGTLVTVSS
VL: DVVMTQSPLSLPVTLGQPASISCKSSQSLLDSDGKTYLNWFQQRPGQSPRRLIYLVSELDSGVPDRFTGSGSGTDFTLKISRVEAEDVGVYYCWQGTHFPRTFGGGTKLEIKR
notes: HB heavy chain with LE light chain of the first humanization round

molecular target: T1, human integrin αvβ6 on cells (human, UniProt P06756 31-1048; P18564 22-788); assay: competition binding, flow cytometry on 293F cells expressing αvβ6; competitor 2 nM AlexaFluor-647 m15H3
T1 construct: whole, on cells; also called HEK293F:huβ6
T1 sequence (P06756 31-1048, chain 1 of 2): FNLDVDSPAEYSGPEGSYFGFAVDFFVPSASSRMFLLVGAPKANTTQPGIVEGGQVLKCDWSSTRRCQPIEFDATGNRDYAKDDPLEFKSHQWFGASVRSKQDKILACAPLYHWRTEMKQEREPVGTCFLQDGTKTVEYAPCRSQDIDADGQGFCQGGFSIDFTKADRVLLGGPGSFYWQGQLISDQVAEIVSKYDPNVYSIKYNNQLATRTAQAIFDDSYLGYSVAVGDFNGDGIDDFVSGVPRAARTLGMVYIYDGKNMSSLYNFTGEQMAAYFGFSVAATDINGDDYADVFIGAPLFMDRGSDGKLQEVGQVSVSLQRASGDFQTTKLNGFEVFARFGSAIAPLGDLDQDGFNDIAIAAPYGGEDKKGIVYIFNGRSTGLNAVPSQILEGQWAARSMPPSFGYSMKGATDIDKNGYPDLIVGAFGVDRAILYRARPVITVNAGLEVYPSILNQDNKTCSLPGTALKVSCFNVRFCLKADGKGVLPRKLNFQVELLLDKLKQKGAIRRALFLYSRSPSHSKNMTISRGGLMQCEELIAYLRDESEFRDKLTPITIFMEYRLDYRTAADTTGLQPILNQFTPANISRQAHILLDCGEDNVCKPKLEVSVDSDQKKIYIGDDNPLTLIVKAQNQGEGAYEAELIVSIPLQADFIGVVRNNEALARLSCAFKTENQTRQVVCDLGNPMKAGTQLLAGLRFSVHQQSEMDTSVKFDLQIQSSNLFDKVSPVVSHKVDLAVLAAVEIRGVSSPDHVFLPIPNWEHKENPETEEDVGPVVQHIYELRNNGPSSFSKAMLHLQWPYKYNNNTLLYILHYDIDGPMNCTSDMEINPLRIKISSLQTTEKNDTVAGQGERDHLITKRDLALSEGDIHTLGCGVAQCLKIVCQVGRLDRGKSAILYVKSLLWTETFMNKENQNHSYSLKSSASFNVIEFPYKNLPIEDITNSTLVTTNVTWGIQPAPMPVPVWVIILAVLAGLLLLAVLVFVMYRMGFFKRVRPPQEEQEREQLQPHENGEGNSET
T1 sequence (P18564 22-788, chain 2 of 2): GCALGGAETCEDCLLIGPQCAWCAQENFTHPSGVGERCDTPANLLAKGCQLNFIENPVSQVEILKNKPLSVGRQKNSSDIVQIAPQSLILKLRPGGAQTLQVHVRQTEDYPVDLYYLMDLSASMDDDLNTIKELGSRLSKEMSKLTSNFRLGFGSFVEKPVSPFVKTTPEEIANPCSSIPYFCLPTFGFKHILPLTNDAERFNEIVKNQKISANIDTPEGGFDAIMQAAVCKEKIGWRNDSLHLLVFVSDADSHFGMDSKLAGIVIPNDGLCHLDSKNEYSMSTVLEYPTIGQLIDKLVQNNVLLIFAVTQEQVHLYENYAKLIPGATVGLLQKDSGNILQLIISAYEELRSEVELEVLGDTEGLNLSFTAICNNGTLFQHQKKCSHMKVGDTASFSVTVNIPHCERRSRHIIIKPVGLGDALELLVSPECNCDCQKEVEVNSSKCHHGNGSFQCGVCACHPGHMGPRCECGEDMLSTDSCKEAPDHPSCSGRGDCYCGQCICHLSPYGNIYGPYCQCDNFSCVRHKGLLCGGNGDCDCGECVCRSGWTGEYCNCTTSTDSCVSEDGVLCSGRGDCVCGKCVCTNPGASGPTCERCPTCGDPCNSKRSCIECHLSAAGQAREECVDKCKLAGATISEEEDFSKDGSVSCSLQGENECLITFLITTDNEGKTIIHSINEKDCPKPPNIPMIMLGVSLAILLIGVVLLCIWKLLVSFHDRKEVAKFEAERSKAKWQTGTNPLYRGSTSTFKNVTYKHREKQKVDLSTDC
Description: (§1) 1×10⁵ antigen expressing cells were aliquoted in each well of a 96-well v-bottom plate on ice. […] Cells were pelleted and washed 3 times with PBS. The cells were pelleted and resuspended in 125 uL of PBS/BSA. Fluorescence was analyzed by flow cytometery, using percent of saturated fluorescent signal to determine percent labeled murine 15H3 bound and to subsequently extrapolate the EC50 by fitting the data to a sigmoidal dose-response curve with variable slope.

In order of rising EC50:
1. B2  0.49 nM
2. B5  0.74 nM
3. B3  0.93 nM
4. B10  0.97 nM
5. B8  1.07 nM
6. B7  3.16 nM
7. B1  11.1 nM
8. B6  23.9 nM
9. B4  26.7 nM
10. B9  32.5 nM

molecular target: T1, human integrin αvβ6 on cells; assay: cell-based or functional assay

B11 and B12 cannot be ordered by “IC50 (ng/ml), cytotoxicity assay on 5637 cells (36 x10^3 αvβ6 copies/cell)” value: over 1000 ng/mL for the first, over 1000 ng/mL for the second.

In order of rising “IC50 (ng/ml), cytotoxicity assay on BxPC3 cells (37 x10^3 αvβ6 copies/cell)” value:
1. B12  7 ng/mL
2. B11  34 ng/mL

In order of falling “IC50 (ng/ml), cytotoxicity assay on Capan-1 cells (19 x10^3 αvβ6 copies/cell)” value:
1. B12  1510 ng/mL
2. B11  365 ng/mL

First: B11
Second: B12
The “IC50 (ng/ml), cytotoxicity assay on HPAFII cells (22 x10^3 αvβ6 copies/cell)” value of the first is lower: 76 ng/mL for the first, over 2000 ng/mL for the second.

In order of rising “IC50 (ng/ml), cytotoxicity assay on HupT4 cells (184 x10^3 αvβ6 copies/cell)” value:
1. B12  16 ng/mL
2. B11  35 ng/mL

In order of rising “IC50 (ng/ml), cytotoxicity assay on Panc08.13 cells (137 x10^3 αvβ6 copies/cell)” value:
1. B11  93 ng/mL
2. B12  1400 ng/mL

B11 and B12 cannot be ordered by “IC50 (ng/ml), cytotoxicity assay on RT4 cells (42 x10^3 αvβ6 copies/cell)” value: over 1000 ng/mL for the first, over 1000 ng/mL for the second.

In order of rising “IC50 (ng/ml), cytotoxicity assay on SW780 cells (80 x10^3 αvβ6 copies/cell)” value:
1. B12  86 ng/mL
2. B11  614 ng/mL

molecular target: T1, human integrin αvβ6 on cells; assay: competition binding on 293F cells expressing human αvβ6 (FIG. 2)
Description: as §1

B13: binds.
B14: binds.
B15: binds.
B16: binds.
B17: binds.
